Consider one substance from publication PMC12477886.

The experiment has as its target SARS-CoV-2 WA1/2020 S2 protein (stabilized prefusion spike S2 trimer) (SARS-CoV-2 (USA-WA1/2020)) (UniProt P0DTC2). In words: cryo-EM structure.

For the substance “SARS-CoV-2 WA1/2020 S2 protein (stabilized prefusion spike S2 trimer) (from UniProt P0DTC2) (domain or fragment)”, the stoichiometry N stood at 3.
